Experimental data as given in patent US20220281980A1 (Bristol-Myers Squibb, published 2022).
Several values for one entry are separate records, joined by “and”; a condition that tells them apart may be missing. Equal entries are not always repeated.

What was measured:
[1] = biological target: T1, human MICB expressed on transduced cells (human, UniProt Q29980 23-382); test: flow cytometry, transfected CHO cells
T1 construct: also called MICB*005
T1 chain: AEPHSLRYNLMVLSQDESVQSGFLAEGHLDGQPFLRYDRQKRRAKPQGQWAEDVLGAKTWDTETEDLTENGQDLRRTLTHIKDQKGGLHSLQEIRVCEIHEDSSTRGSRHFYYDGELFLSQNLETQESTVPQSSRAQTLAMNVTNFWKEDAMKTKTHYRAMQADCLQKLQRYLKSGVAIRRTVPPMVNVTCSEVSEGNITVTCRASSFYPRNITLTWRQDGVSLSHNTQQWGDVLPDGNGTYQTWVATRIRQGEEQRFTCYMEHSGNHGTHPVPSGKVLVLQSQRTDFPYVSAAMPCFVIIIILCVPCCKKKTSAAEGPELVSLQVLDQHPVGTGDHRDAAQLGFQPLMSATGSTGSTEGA

[2] = biological target: T2, cynomolgus monkey MICA/B clone #4 expressed on CHO cells (cynomolgus monkey); test: flow cytometry, transfected CHO cells
T2 construct: whole, on cells; also called cyno#4; CHO-cyno MICA clone #4

[3] = biological target: T3, cynomolgus monkey MICA/B clone #6 expressed on CHO cells (cynomolgus monkey); test: flow cytometry, transfected CHO cells
T3 construct: whole, on cells; also called cyno#6; CHO-cyno MICA clone #6

[4] = biological target: T4, recombinant soluble human MICA*002 antigen (human, UniProt Q29983 24-307); test: SPR (Biacore 3000), antibody captured on Protein G chip, huMICA-his analyte
T4 construct: also called huIMICA-his allele *002
T4 chain: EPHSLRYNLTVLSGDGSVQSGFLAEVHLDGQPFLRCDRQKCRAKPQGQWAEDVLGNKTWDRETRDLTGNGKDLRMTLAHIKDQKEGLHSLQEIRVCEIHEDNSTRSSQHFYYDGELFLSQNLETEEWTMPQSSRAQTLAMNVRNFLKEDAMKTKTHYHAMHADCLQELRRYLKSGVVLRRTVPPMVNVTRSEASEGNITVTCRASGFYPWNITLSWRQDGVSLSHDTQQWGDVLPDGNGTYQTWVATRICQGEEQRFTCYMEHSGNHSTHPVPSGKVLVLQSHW
Description: (§1) Kinetics and affinity of anti-MICA/B antibodies MICA.2, 19G6, 16A5, and 71C2 towards human MICA alleles (huIMICA-his allele *002, *004, *008, and *009) were also determined on a BIACORE 3000® instrument using the following conditions: [0571] Running Buffer: HES-EP running buffer [0572] Chip: CM5 Protein G Chip Fc1: Blank. Fc2-4: ˜200Rus [0573] Ab: 5 ug/mL, 10 uL @ 10 uL/min [0574] Ag binding: 5 min association, 7 min dissociation @ 25 uL/min, [0575] Regeneration: Glycine 1.7, 10 uL @ 100 uL/min followed by 60s wash by HES-EP

[5] = biological target: T5, recombinant soluble human MICA*004 antigen (human, UniProt Q29983 24-307); test: as above
T5 construct: also called huIMICA-his allele *004
T5 chain: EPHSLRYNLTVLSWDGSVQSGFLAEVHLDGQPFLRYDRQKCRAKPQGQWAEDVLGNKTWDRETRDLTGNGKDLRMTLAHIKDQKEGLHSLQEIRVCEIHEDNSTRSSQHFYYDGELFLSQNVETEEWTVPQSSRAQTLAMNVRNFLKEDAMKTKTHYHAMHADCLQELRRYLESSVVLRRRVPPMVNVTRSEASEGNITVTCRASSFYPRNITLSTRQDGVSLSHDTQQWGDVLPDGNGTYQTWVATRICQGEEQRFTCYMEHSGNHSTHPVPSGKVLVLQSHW
Description: as §1

[6] = biological target: T6, recombinant soluble human MICA*008 antigen (human, UniProt Q29983 24-307); test: as above
T6 construct: also called huIMICA-his allele *008; recombinant soluble MICA (allele 8)
T6 chain: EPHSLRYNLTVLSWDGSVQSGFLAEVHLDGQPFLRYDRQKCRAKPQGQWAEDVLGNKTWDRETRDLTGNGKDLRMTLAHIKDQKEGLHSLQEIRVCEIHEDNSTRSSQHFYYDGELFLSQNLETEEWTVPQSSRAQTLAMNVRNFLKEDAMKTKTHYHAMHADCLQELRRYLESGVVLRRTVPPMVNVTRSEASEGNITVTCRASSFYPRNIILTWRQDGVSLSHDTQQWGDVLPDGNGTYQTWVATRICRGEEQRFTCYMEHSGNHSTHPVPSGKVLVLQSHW
Description: as §1

[7] = biological target: T7, recombinant soluble human MICA*009 antigen (human, UniProt Q29983 24-307); test: as above
T7 construct: also called huIMICA-his allele *009
T7 chain: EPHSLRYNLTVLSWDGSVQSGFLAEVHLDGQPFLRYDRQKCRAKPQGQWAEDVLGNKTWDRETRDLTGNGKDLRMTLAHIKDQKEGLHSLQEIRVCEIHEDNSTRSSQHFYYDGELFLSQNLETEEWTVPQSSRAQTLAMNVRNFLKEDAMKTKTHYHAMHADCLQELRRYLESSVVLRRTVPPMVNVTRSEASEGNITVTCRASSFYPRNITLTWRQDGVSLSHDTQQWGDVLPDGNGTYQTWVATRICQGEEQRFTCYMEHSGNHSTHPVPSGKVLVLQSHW
Description: as §1

[8] = biological target: T4, recombinant soluble human MICA*002 …; test: SPR (Biacore 3000), antibody captured on Protein G chip, huMICA-his analyte; power of ten not given
Description: as §1

[9] = biological target: T5, recombinant soluble human MICA*004 …; test: as above
Description: as §1

[10] = biological target: T6, recombinant soluble human MICA*008 …; test: as above
Description: as §1

[11] = biological target: T7, recombinant soluble human MICA*009 …; test: as above
Description: as §1

[12] = biological target: T4, recombinant soluble human MICA*002 …; test: SPR (Biacore T200, 37 C), antibody captured on anti-human Fc, antigen 500 and 50 nM
Description: (§2) Anti-MICA/B antibodies were captured to α-human Fc surfaces. MICA allele antigens were injected at high and low nanomolar concentrations (500 nM and 50 nM, except indicated otherwise). The results for antibodies MICA.36 and MICA.38 (MICA.2 with a Ser inserted between residues 95 and 96 in the light chain) are shown in Table 2 below.

[13] = biological target: T5, recombinant soluble human MICA*004 …; test: as above
Description: as §2

[14] = biological target: T6, recombinant soluble human MICA*008 …; test: as above
Description: as §2

[15] = biological target: T7, recombinant soluble human MICA*009 …; test: as above
Description: as §2

[16] = biological target: T6, recombinant soluble human MICA*008 …; test: BLI (Octet) sandwich binning on soluble MICA allele 8, row antibody captured; competitor (second antibody): MICA.2
Description: (§3) The binning experiments were performed on an Octet HTX instrument at 25° C. in HEPES buffered saline (10 mM HEPES pH 7.4, 150 mM NaCl, 0.05% v/v surfactant P20, and 1 mg/mL BSA). Anti-MICA/B antibodies and NKG2D-mFc were captured on anti-Fc tips and remaining capture sites were blocked with an excess of negative control IgG. Recombinant soluble MICA (allele 8) was bound and subsequent binding (“sandwiching”) of anti-MICA/B antibodies was tested.

[17] = biological target: T6, recombinant soluble human MICA*008 …; test: BLI (Octet) sandwich binning on soluble MICA allele 8, row antibody captured; competitor (second antibody): MICA.36
Description: as §3

[18] = biological target: T6, recombinant soluble human MICA*008 …; test: BLI (Octet) sandwich binning on soluble MICA allele 8, row antibody captured; competitor (second antibody): MICA.38
Description: as §3

[19] = biological target: T6, recombinant soluble human MICA*008 …; test: BLI (Octet) sandwich binning on soluble MICA allele 8, row antibody captured; competitor (second antibody): MICA.39
Description: as §3

[20] = biological target: T6, recombinant soluble human MICA*008 …; test: BLI (Octet) sandwich binning on soluble MICA allele 8, row antibody captured; competitor (second antibody): MICA.40
Description: as §3

B1: 16A5 (antibody, V domains shown)
VH: QVQLVESGGDVVQPGRSLRLSCAASGFTFSNYNIHWVRQAPGKGLEWVAVIRYDGINKYYADSVKGRFIISRDNSKNTLYLQMNSLRAEDTAVYYCASGPPDAFNIWGQGTMVTVSS
VL: AIQLTQSPSSLSASVGDRVTITCRASQGISSALAWYQQKPGKVPKSLIYDASSLESGVPSRFSGSGSGTDFTLTISSLQPEDFATYYCQQFNSYPITFGQGTRLEIK
notes: Hybridoma antibody; #1 and #2 are two hybridoma lines from the same clone; also called 16A5 (#1); 16A5 (#2)
Q: How did the EC50 [1] turn out when B1 was run?
A: The EC50 was 8.16 nM and 21.6 nM.

Q: And the EC50 [2]?
A: Its EC50 is 0.856 nM and 2.38 nM.

Q: What about the EC50 [3] of the same binder?
A: Its EC50 is 9.26 nM and 13.8 nM.

Q: And the Kd [4]?
A: Its Kd is 147 nM.

Q: And the Kd [5]?
A: Its Kd is 6.89 nM.

Q: What about the Kd [6] of the same binder?
A: Its Kd is 4.55 nM.

Q: And the Kd [7]?
A: Its Kd is 12.9 nM.

Q: And the koff [8]?
A: The koff was 0.0104 s⁻¹.

Q: And the koff [9]?
A: The koff was 1.72 s⁻¹.

Q: And the koff [10]?
A: The koff was 1.72 s⁻¹.

Q: What about the koff [11] of the same binder?
A: Its koff is 2.15 s⁻¹.

B2: MICA.38 (antibody, V domains shown)
VH: EVQLVESGGGLVQPGGSLRLSCAASGFTFSTYSMNWVRQAPGKGLEWVSYISYRSRTIYYADSVKGRFTISRDNARNSLYLQMNSLRDEDTAVYYCARWGYGSGGFDYWGQGTLVTVSS
VL: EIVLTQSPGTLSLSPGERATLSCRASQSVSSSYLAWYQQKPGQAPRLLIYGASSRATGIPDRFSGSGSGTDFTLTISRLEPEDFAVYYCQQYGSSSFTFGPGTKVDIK
notes: MICA.2 with a Ser inserted between residues 95 and 96 in the light chain; also called MICA.38_3F5_S95k
Q: B2 was tested. Which Kd [12] did it give?
A: The Kd was 123 nM.

Q: And the koff [12]?
A: Its koff is 0.127 s⁻¹.

Q: What about the kon [12] of the same binder?
A: Its kon is 1.03e+06 M⁻¹ s⁻¹.

Q: What about the Kd [13] of the same binder?
A: The Kd was 104 nM.

Q: What about the koff [13] of the same binder?
A: The koff was 0.0426 s⁻¹.

Q: And the kon [13]?
A: Its kon is 410000 M⁻¹ s⁻¹.

Q: And the Kd [14]?
A: Its Kd is 130 nM.

Q: And the koff [14]?
A: The koff was 0.078 s⁻¹.

Q: What about the kon [14] of the same binder?
A: The kon was 600000 M⁻¹ s⁻¹.

Q: And the Kd [15]?
A: The Kd was 126 nM.

Q: What about the koff [15] of the same binder?
A: The koff was 0.0502 s⁻¹.

Q: And the kon [15]?
A: Its kon is 397000 M⁻¹ s⁻¹.

Q: What about the “simultaneous binding (0 = no, 1 = yes)” value [16] of the same binder?
A: Its value is 0.

Q: What about the “simultaneous binding (0 = no, 1 = yes)” value [17] of the same binder?
A: Its value is 1.

Q: What about the “simultaneous binding (0 = no, 1 = yes)” value [18] of the same binder?
A: The value was 0.

Q: What about the “simultaneous binding (0 = no, 1 = yes)” value [19] of the same binder?
A: Its value is 0.

Q: What about the “simultaneous binding (0 = no, 1 = yes)” value [20] of the same binder?
A: Its value is 0.
